Where no end group is shown, it is not given here. The star is where a group is joined. 5FAM = O=C1OC2(c3ccc(O)cc3Oc3cc(O)ccc32)c2ccc(C(=O)*)cc21
T1: MBP_(A216H_K220H)-SUFU-Δ_(W61D_L62S_G63F_P453A_Δ454–456_K457A) (human, UniProt Q9UMX1 32-278; Q9UMX1 361-483, W61D | L62S | G63F | P453A | Δ454–456 | K457A)
T1 construct: human SUFU, residues 32-278, WLG61-63 mutated to DSF; heptamer that replaces amino acids 279-360 (the IDR), as in MBP-SUFU-Δ; human SUFU, residues 361-483, a flexible loop shortened; Derived from MBP-SUFU-Δ; residues 216 and 220 of the MBP moiety mutated to histidine; crystallised with zinc acetate and maltose; source: E. coli JM109 (DE3), purified (HisTrap, SEC); not shown: MBP (A216H, K220H), …
T1 sequence: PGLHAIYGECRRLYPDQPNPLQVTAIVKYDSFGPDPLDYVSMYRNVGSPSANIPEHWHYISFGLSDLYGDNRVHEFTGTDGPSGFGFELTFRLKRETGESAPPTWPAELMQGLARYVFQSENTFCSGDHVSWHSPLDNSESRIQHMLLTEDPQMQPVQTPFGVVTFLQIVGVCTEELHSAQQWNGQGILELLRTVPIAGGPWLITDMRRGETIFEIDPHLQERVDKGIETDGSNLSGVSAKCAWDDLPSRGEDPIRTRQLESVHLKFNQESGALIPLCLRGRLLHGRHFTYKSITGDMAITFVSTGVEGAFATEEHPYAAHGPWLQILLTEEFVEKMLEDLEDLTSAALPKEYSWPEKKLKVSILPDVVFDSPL

B1: MBP-SUFU-FL (domain or fragment, human, UniProt Q9UMX1 32-483, looked up)
chain: PGLHAIYGECRRLYPDQPNPLQVTAIVKYWLGGPDPLDYVSMYRNVGSPSANIPEHWHYISFGLSDLYGDNRVHEFTGTDGPSGFGFELTFRLKRETGESAPPTWPAELMQGLARYVFQSENTFCSGDHVSWHSPLDNSESRIQHMLLTEDPQMQPVQTPFGVVTFLQIVGVCTEELHSAQQWNGQGILELLRTVPIAGGPWLITDMRRGETIFEIDPHLQERVDKGIETDGSNLSGVSAKCAWDDLSRPPEDDEDSRSICIGTQPRRLSGKDTEQIRETLRRGLEINSKPVLPPINPQRQNGLAHDRAPSRKDSLESDSSTAIIPHELIRTRQLESVHLKFNQESGALIPLCLRGRLLHGRHFTYKSITGDMAITFVSTGVEGAFATEEHPYAAHGPWLQILLTEEFVEKMLEDLEDLTSPEEFKLPKEYSWPEKKLKVSILPDVVFDSPL
notes: human SUFU (Suppressor of fused), residues 32-483, called essentially full length; MBP is joined to SUFU by a three-alanine linker; vector pLJMBP4c (Monné et al., 2008); also called SUFU_(32–483); source: E. coli JM109 (DE3), purified (HisTrap, SEC); not shown: MBP, N-terminal, kept
B2: GLI1p (peptide, UniProt P08151 115-131, looked up)
peptide: TSPGGSYGHLSIGTMSP
notes: human GLI1, residues 115-131, holds the SYGH motif; also called human GLI1-derived peptide; source: synthetic peptide (Dr W. Mawby, University of Bristol)
B3: MBP-SUFU-Δ (domain or fragment, human)
chain: PGLHAIYGECRRLYPDQPNPLQVTAIVKYWLGGPDPLDYVSMYRNVGSPSANIPEHWHYISFGLSDLYGDNRVHEFTGTDGPSGFGFELTFRLKRETGESAPPTWPAELMQGLARYVFQSENTFCSGDHVSWHSPLDNSESRIQHMLLTEDPQMQPVQTPFGVVTFLQIVGVCTEELHSAQQWNGQGILELLRTVPIAGGPWLITDMRRGETIFEIDPHLQERVDKGIETDGSNLSGVSAKCAWDDLPSRGEDPIRTRQLESVHLKFNQESGALIPLCLRGRLLHGRHFTYKSITGDMAITFVSTGVEGAFATEEHPYAAHGPWLQILLTEEFVEKMLEDLEDLTSPEEFKLPKEYSWPEKKLKVSILPDVVFDSPL
notes: human SUFU, residues 32-278; heptamer that replaces amino acids 279-360 (the IDR); human SUFU, residues 361-483; Same frame as MBP-SUFU-FL (three-alanine linker after MBP); source: E. coli JM109 (DE3), purified (HisTrap, SEC); not shown: MBP, N-terminal, kept
B4: FAM-GLI1p (peptide, UniProt P08151 115-131, looked up)
peptide: 5FAM-TSPGGSYGHLSIGTMSP
notes: human GLI1, residues 115-131; also called 5-FAM-labelled peptide; FAM-labelled GLI1p peptide; source: synthetic peptide (Pepceuticals Ltd)

Key:
Details in all cases: both partners purified
GLI1p = target: B2; experiment: thermal stability assay (SYPRO Orange); 2.2 µM MBP-SUFU protein with 44 µM peptide; 50 mM Na HEPES pH 7.0, 50 mM NaCl, 5 mM β-mercaptoethanol; heated from 20 to 90°C; triplicate
[1] = target: T1, MBP_(A216H_K220H)-SUFU-Δ_(W61D_L62S_G63F …); experiment: crystal structure; co-crystals of the MBP-SUFU-Δ variant with zinc acetate (1:1) and GLI1p or GLI3p (1:4); hanging drop, 4°C, PEG 3350, sodium formate
MBP-SUFU-FL [2] = target: B1; experiment: HDX-MS; MBP-SUFU-FL with a 5.5-fold excess of GLI3p, incubated 1 h; exchange 300, 600 and 1800 s at 4°C; 50 mM Na HEPES pH 7.0, 50 mM NaCl, 5 mM β-mercaptoethanol, 1.5 mM maltose
MBP-SUFU-FL [3] = target: B1; experiment: MST; 50 nM FAM-GLI1p, MBP-SUFU constructs titrated (14.2–29 070 and 54–110 500 nM); 50 mM Tris–HCl pH 7.6, 150 mM NaCl, 10 mM MgCl2, 0.05% Tween-20; three independent measurements

| binding result [1] | Binder | Tm shift on addition of GLI1p (GLI1p) | other results |
| --- | --- | --- | --- |
|  | B1 | 4 °C |  |
| binds | SSASGSYGHLSASAISP (peptide, UniProt P10071 328-344, looked up, human GLI3, residues 328-344) [GLI3p] |  | binding result (MBP-SUFU-FL [2]): binds |
| binds | B2 |  |  |
|  | B3 | 3.6 °C |  |
|  | B4 |  | binding result (MBP-SUFU-FL [3]): binds |
